Legend:
[1] = biological target: human Anti-Mullerian Hormone Receptor II (AMHR2), full length (human) (UniProt Q16671); test: flow cytometry on AMHR2-OVCAR8 cells, mAb at 1 µg/ml
[2] = biological target: human Anti-Mullerian Hormone Receptor II (AMHR2), full length (human) (UniProt Q16671); test: flow cytometry on primary HGSOC-1 cells
[3] = biological target: human Anti-Mullerian Hormone Receptor II (AMHR2), full length (human) (UniProt Q16671); test: flow cytometry on primary HGSOC-2 cells
[4] = biological target: human Anti-Mullerian Hormone Receptor II (AMHR2), full length (human) (UniProt Q16671); test: flow cytometry competition on AMHR2-OVCAR8 cells: 4D12G1 mAb at 1 µg/ml with recombinant ovalbumin at 10 µg/ml; 91 % without competitor in FIG. 2E
[5] = biological target: human Anti-Mullerian Hormone Receptor II (AMHR2), full length (human) (UniProt Q16671); test: flow cytometry competition on AMHR2-OVCAR8 cells: 4D12G1 mAb at 1 µg/ml with recombinant ovalbumin at 100 µg/ml; 91 % without competitor in FIG. 2E
[6] = biological target: human Anti-Mullerian Hormone Receptor II (AMHR2), full length (human) (UniProt Q16671); test: flow cytometry competition on AMHR2-OVCAR8 cells: 4D12G1 mAb at 1 µg/ml with recombinant ovalbumin at 1 µg/ml; 91 % without competitor in FIG. 2E

Chain of human Anti-Mullerian Hormone Receptor II (AMHR2), full length (human) (Q16671 18-573 limits assumed): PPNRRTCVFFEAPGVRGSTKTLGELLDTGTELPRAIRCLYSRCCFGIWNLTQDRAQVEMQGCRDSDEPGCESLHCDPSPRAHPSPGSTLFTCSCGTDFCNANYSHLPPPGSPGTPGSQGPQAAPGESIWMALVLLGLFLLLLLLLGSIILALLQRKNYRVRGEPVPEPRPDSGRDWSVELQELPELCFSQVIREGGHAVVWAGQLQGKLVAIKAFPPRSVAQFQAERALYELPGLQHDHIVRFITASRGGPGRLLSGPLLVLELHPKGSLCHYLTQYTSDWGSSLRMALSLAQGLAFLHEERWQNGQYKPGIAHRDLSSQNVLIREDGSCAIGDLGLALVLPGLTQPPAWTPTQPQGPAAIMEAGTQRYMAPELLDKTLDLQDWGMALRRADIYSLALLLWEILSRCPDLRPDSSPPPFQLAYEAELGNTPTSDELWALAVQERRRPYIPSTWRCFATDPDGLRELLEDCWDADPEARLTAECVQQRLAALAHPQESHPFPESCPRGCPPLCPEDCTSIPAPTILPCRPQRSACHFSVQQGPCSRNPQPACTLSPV

Row | Substance | % of cells in the positive gate [1] | percent of cells bound [2] | percent of cells bound [3] | % of cells in the 4D12G1-positive gate with ovalbumin at 10 µg/ml [4] | % of cells in the 4D12G1-positive gate with ovalbumin at 100 µg/ml [5] | % of cells in the 4D12G1-positive gate with ovalbumin at 1 µg/ml [6]
1 | isotype control mAb (antibody) | 1.1% | 1.5% | 1.1% |  |  | 
2 | recombinant ovalbumin (from UniProt P01012 2-386) |  |  |  | 86% | 88% | 88%

— patent US20230078601A1 (CLEVELAND CLINIC FOUNDATION, published 2023)
